B2: EhVps24 (natural protein)
chain: MGNLNSQTVDNSFQQKQFELKVNRDNLSKREKEYQNNIEKLNKEARKYCRKGDKENAKRQIKLRTLYETNLKEIRCYLDQTETILIQLEASKRNYDVAKLMDESNKEIKKILNKIPKNFIEEIINTKKENSDKLKEIDSLYEQLNDIDNENQIEQELNKLALEVMSEKEGGIEAVKNEVIAESLPEVNSQSDMLISKQNIVIETF
notes: EhVps24, Entamoeba histolytica ESCRT-III protein, endogenous in trophozoites; also called EhVps24 protein; source: endogenous, E. histolytica trophozoites (lysate for immunoprecipitation; fixed, permeabilized cells for flow cytometry)

The assay “EhVps24” has as its target B2. The assay can be described thus: flow cytometry on cells; PFA-fixed, Triton X-100 permeabilized trophozoites after 0, 5 and 30 min of erythrophagocytosis, stained with couples of primary antibodies and secondary antibodies with distinct fluorochromes; percent association of each couple. The conditions noted are these: partners not purified. (In general: Flow cytometry measures light scatter and fluorescence of single cells or particles in a stream.)

The target of another assay is T1, EhVps32 (Entamoeba histolytica (endogenous in …, UniProt C4M1A5 1-204)).
T1 construct: EhVps32, Entamoeba histolytica ESCRT-III protein (ortholog of yeast Snf7/Vps32 and human CHMP4), endogenous in trophozoites; Precipitated and detected with the mouse polyclonal α-rEhVps32 antibody; also called EhVps32 protein; source: endogenous, E. histolytica trophozoites (lysate for immunoprecipitation; fixed, permeabilized cells for flow cytometry)
T1 sequence: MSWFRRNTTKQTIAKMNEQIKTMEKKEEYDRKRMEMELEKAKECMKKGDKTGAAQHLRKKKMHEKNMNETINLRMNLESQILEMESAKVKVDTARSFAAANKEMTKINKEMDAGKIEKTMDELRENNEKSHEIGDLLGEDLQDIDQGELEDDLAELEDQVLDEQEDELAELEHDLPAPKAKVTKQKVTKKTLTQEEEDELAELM
Described as above. Conditions: partners not purified.

B1: EhVps2 (natural protein)
chain: MSRLFHKKTPQEIVREQKLNISKSIREITRESKRLEREEVRLTNEIRKMARLGRTNTVKVMAADLVKTKKQIDKLQVVIAQLNSTKMKLTEMSSMVAVTEAMNGVTNAMRKVNEATKLPAMQKVMNDFEKQNAELGIKNTMVSDMVNEGYEGDDIEEETELEVDKVLTEIGLDVENGLKPVPETRQRNTRLKERRQVQMEGGVKTRNEGNEQPEDLDTPGSRVPKAFNEGEDDEDEDDIVSRIANL
notes: EhVps2, Entamoeba histolytica ESCRT-III protein, endogenous in trophozoites; also called EhVps2 protein; source: endogenous, E. histolytica trophozoites (lysate for immunoprecipitation; fixed, permeabilized cells for flow cytometry)
Turning to B1, in the assay with EhVps24, the “percent interaction, 30 min of erythrophagocytosis” value (“percent interaction, 30 min” for short) worked out at 10%.

For B2, the “percent interaction, 30 min” value with EhVps32 is around 47%.

B3: EhVps20 (natural protein)
chain: MLNRFIGKNEEPSIDETHAILESRVTDLDQKIVDLDRQIRQNIEMSHKTTGAESQRYKQKALMLLKQKKQHEQHRDITERHQMNLENVQFQVDQMKDYKKVYDAMAASNRQMKLISRQFDINSIEDVQDSMMNFAEDQQEFGDILSQDITNMDLNELDDELAELGDSMFEGDIQIPESDGFGSVPITNEPFRQKEESQPDDKKFAI
notes: EhVps20, Entamoeba histolytica ESCRT-III protein, predicted 206 amino acids, endogenous in trophozoites; also called EhVps20 protein; source: endogenous, E. histolytica trophozoites (lysate for immunoprecipitation; fixed, permeabilized cells for flow cytometry)
B3: the “percent interaction, 30 min” value with EhVps32 was around 47%.

Source of the values: PMC5838018, “The Conserved ESCRT-III Machinery Participates in the Phagocytosis of Entamoeba histolytica” (Frontiers in Cellular and Infection Microbiology, 2018).
